Experimental findings from the DeepSol protein solubility set are described below.

A short description of this series: soluble on expression in E. coli; label from the status in PepcDB or PDB records.
With “MNTKPKTIATSSTLELPKLHFQYDNTTTTFTEEEKLIDLKPTSEANYVKFWYNIVRNTYSQTHTNGSPVKPYLVANIERTIDTRLGEVFLHKKERSEHWASIAWFFNIDVKGKLVEKIIIRMSGIEELILNSGTTQIGENLNLISKSTRIPIEQNLTIDNPQLEVFYIMALWTISLDARAFKADLEDGINSESFSVEVFWKSKQDHNQTTISI”, the “soluble on expression in E. coli” value is “not soluble”.
With “MSLKSDEVFAKIAKRLESIDPANRQVEHVYKFRITQGGKVVKNWVMDLKNVKLVESDDAAEATLTMEDDIMFAIGTGALPAKEAMAQDKMEVDGQVELIFLLEPFIASLK” the entry was “soluble”; with “MPIRAARASLRRMDSDFLIIGGGIAGVSAAARLSELGSVTLLEAEDALAHHASSRSAALYEPRYGLPPVVELSLASGDFFRAADGILSPRGLLVVGREAEREQFEDETVGMHLERISAEEARAAVPILRPDVTLAARADHAWDIDTDRLLQGFAREARARGARIVTKARVGAIARDGAGWRVEAGESYRARILVNAAGAWADGVAALSGVRPLGLVPYRRSMARIPAPGGHDISRWPMIFGVGESWYAKPDAGALIVSPADEDPQEPHDAWADDMVLAEGLARYEEMVTEPVTRLLASWAGLRTFAPDRVLVIGEDPAAPGFFWLAGQGGYGFQTCPAASRLAADLIGGRSPEVPAALIAALSPDRFALEHHHHHH”, “not soluble”.
For the sequence “GKTVSVFGETCATPVGPAAGPHTQLAQNIVTSWLTGGRFIELKTVQILDRLELEKPCIDAEDECFNTEWSTEFTLLKAWDEYLKAWFALHLLEAMFQPSDSGKSFIFNMSVGYNLEGIKQPPMQQFIDNMMDASDHPKFAQYRDALNKLLQNEAFLARHGLQEKRESLQALPARIPTSMVQGVTLSTMHGCPPHEIEAICRYMLEEKGLNTFVKLNPTLLGYARVREILDVCGFGYIGLKEESFDHDLKLTQALEMLERLMALAKEKSLGFGVKLTNTLGTINNKGALPGEEMYMSGRALFPLSINVAAVLSRAFDGKLPISYSGG”, the “soluble on expression in E. coli” value was “not soluble”.
In the case of “MDIYVCTVCGYEYDPAKGDPDSGIKPGTKFEDLPDDWACPVCGASKDAFEKQ”, the “soluble on expression in E. coli” value was “soluble”.
On to “MHNYLDFEKPISDLEGKILELKKLASEDESVNTSDEIARLEGRVRDAMVEIYSKLSPWQKTQVARHPSRPHFLDYASRLFTEFTPLAGDRNFANDDAIQAGLARFHGTPVAVIGQEKGNDTKSRIKHNFGSPRPEGYRKATRIMEMADRFGLPLITLVDTAGAYPGVNAEERGQAEAIARSTEMCLNVKVPIVTVVIGEGGSGGAIAIATGNRVYMLEHAIYSVISPEGAASILWRDSTRAKEAASNMKITAEDLKSLGVIDGIIPEPVGGAHRDPDAVISRTETVIGDALKELSARNGDELRADRRQKYLNIGRNL”, for which the “soluble on expression in E. coli” value is “not soluble”.
“MSLNVVNSIFSKLSIAPMIDWTNSPFRTLMRLLAPNALLYTEMQTTGAVQNNPDRALYFNSVEHPLAIQLGGADKSALVKCAIIAEQKGFNEINLNLGCPSDKVQAGRFGACLMKEPEHVADCIRAIKQVVGIPVTAKTRIGIDNQDSYEFFRSFSLHLVEAGCDKLIIHARKAWLNGLNPKQNRTIPPVNYDYVYELKKEIPHIFITINGNILTVEEINNHLKHVDGVMLGRLACDNPYQIAEIHQALYPEFIKIKRSQLLMNYLDYWFDQSRANLSLSILVKPLFNLAFGLPGAKHWKKKLMNIIQEKNTSGFSELIQYLLNLEAINQVEEGHHHHHH”: the “soluble on expression in E. coli” value is “soluble”.
Take “MGHHHHHHSHMAASRNGFEAVEAEGSAGCRGSSGMEVVLPLDPAVPAPLCPHGPTLLFVKVTQGKEETRRFYACSACRDRKDCNFFQWEDEKLSGARLAAREAHNRRCQPPLSRTQCVERYLKFIELPLTQRKFCQTCQQLLLPDDWGQHSEHQVLGNVSITQLRRPSQLLYPLENKKTNAQYLFADRSCQFLVDLLSALGFRRVLCVGTPRLHELIKLTASGDKKSNIKSLLLDIDFRYSQFYMEDSFCHYNMFNHHFFDGKTALEVCRAFLQEDKGEGIIMVTDPPFGGLVEPLAITFKKLIAMWKEGQSQDDSHKELPIFWIFPYFFESRICQFFPSFQMLDYQVDYDNHALYKHGKTGRKQSPVRIFTNIPPNKIILPTEEGYRFCSPCQRYVSLENQHCELCNSCTSKDGRKWNHCFLCKKCVKPSWIHCSICNHCAVPDHSCEGPKHGCFICGELDHKRSTCP”: the “soluble on expression in E. coli” value was “soluble”.
With “MSGAVLPAVLVVPKMESVVVPIAESTVINAKDTTPSTAADNDVSPSPSEPDTDAIKMFVGQIPRQWNETDCRRLFEKYGSVFSCNILRDKSTQASKGCCFVTFYHRKDAIEAQGALHNIKVIEGMHHPVQMKPADTENRNERKLFIGQLSKKHNEENLREIFAKFGHIEDCSVLRDQDGKSRGCAFVTFTNRSCAVVATKEMHHSQTMEGCSAPLVVKFADTQKDKDVKTKSMITGSGAGSPKGGAASLLQNLNPALLQQLGGGQNYQAVASLLSLINGQQGQQQQHQQQQNVLGILGTVLSALGKLTEGGDDASAKSSSEKPRHQALMTSPAPTATSSTSSSASHHHQQHQQQLSQQQQQQQHPQQQGLGNPLLGNPAMAAQNQFDAITMAQIAHQQQMLALQGFAVQQGAPSQQQQGLAGGMAGAKTTSPVAASLANHQQIALTPFAGGAAALDHFQAMQQYALLANLQATGGVGVQATTSAAQMVGNGDVKGPDGANLFIYHLPQDFGDSDLINTFAPFGGILSAKVFIDKVTNLSKCFGFVSYENAQSATNAISAMNGFQIGSKRLKVQLKVDRGNPYNR” the entry was “not soluble”; with “MAHHHHHHMESINRNNNINKNEIDNKINNNNNMDVPIEGNEKSQEGDIIGQFGVGFYSSFVVSNKVEVFTRSYDNNSSKGYHWVSYGNGTFTLKEVDNIPKGTKIICHLKDSCKEFSNIQNVQKIVEKFSSFINFPVYVLKKKKILQT”, “soluble”.
For “MSLNDQYEALYQTFRWLVPTQFNIADACCHRWAASSPDARRIAIYYEDEAGNREVWTYARLAEAANQLANGLVKMGVERGDRVGVVLGQRPETVVAHMAIYSVGAVVLPLSPLFGPEALESRLRDADARVAIVDYASSANLLAISDNCPNLHQIIGIGFADERVLPWRSLLARQPNEFKMVATRASDPAILMYTSGTTGAPKGALLPHSVLIGNLPGFVASQDWFPRPGDVFWSPADWAWTGGMMDALLPTLYFGHPIVGTRGRFTPERAFELMERYQVTNTFLFPTALKMMMKSVPEPRGRYQLALRSIMSAGESVGETVFEWCEQALGITPNEMFGQTELNYVVGNSNRRWPARPGSMGRPYPGHRVAVIDEAGRPVKPGETGEVALNRFDIHGFPDPVLFLGYWRNEAATAAKFTDDWCRTGDLASIDADGYLWYAGRADDVFKSAGYRIGPGEIENCLLGHPAVANAAVVPKPDAERGALVKAYVVLTPEYQGRDPDSITQVLQEHVRDRLAPYEYPKEIEYVDALPMTTTGKIQRAVLRRREAERASGAHSEGHHHHHH”, the “soluble on expression in E. coli” value was “not soluble”.
As to “MSLSDNIYSVSQLNSAARQMLEGNFCQIWLTGEISNFTQPVSGHWYLTLKDENAQVRCAMFRMKNLRVAFRPQNGMQVLVRANVSLYEPRGDYQLIIDSMHPAGEGLLQQQFEALKMKLAAEGLFAQNLKKTLPHFSKAVGIITSSTGAALQDILHILARRDPSLKVVIYPTAVQGKEATAEIVQMIELANARQEVDVLIVGRGGGSLEDLWCFNEEEVARAIFRSTLPIISAVGHETDVTIADFVADLRAPTPSAAAELVSRNQDELLQQLRHQQQRLDMAFDRLFTRKSQRLKQLALRLQNQHPQNQLRAQQAKNEQLTHRLQLAILRQFENTQQKFTALSVRLKQNPLPYRIQRYQQGLEQLKVRLNFCVNRQVTERQNKLATLCGKLDGLSPLKVLARGYSIAENPQGKAIVSVKDVNQGDFITTQVADGKIVSKVLEGHHHHHH”, the “soluble on expression in E. coli” value is listed as “not soluble”.
For the sequence “MGSDKIHHHHHHMALDQDGIQKVQKISTGIERLDDLFYGGFDRNDNVVVRGNNFSQKRSFIYSFIKKSANSGIGVVLVDFDFPSEGIMADLVRSGTNTDMVHILDGFAKPFQISAPSNTEMLDDPGNIPSVLKQITSTVQKMDEYVFVMLSATRYLIAKDQNTDRFFVQLINMNRKRSLVSIYAVDDFVPEDRSEWFAYLMDSALHFRNAGARAYLRVLTLKRIRTKEWVRIYPEEGTFTLGSFNVERIK”, the “soluble on expression in E. coli” value is “not soluble”.
In the case of “MGSDKIHHHHHHAQNFSDYFTNKTLRIDYLFTGNADKQSICLDELSELPVWAGRRHHLSELPLEGNGQIVMRDVASGKVIYTTSFSSLFQEWLETDEAKEVTKGFENTYLLPYPIKPAEVEITLRNNKREVSANLKHVVKPDDILIHKKGLTHITPHKYLLKSGNEEQCIDVAILAEGYTTSEMETFYKDAAIACEALFSHEPFQSMKNRFNIVAVASPSADSGVSAPKQGAWKHTAFGSHFDTFYSDRYLTTSRVKAINDALAGIPYEHIIILANTEQYGGGGIYNAFTLTTAHHPNFRPVVVHEFGHSFGGLADEYFYDEDVMNGLYPLNIEPWEQNITTRINFASKWEDMLTKTTPVPTPVADKAKYPIGVYEGGGYSAKGIYRPAFDCRMRTNEYPTFCPVCQRAIQRIIEFYTGK”, the “soluble on expression in E. coli” value is “not soluble”.
For “MSLAIRVVCISDTHDLKVDIPRGDILIHAGDLTDGGTVSDIQKQLDWLKEQPHPIKVVVAGNHDSWFDQKSRPEEDARSGAKPDMDGLIYLESGLTVQKVKGRTVNIFGVPDIPEIGPKEFAFQYATDNHPWLSKVPPQTDILVTHCPPKHHLDLGLGDSNLLREVWRVKPRLHVFGHVHCAYGKESVFFDNFQQTYERIMSRPRRGPILDFIPNEAWLDYLRFLAQGIHAVAWKWIMSGPGSNNGSLMVNAAQMKGNSGKVKSRAVVVEIEGHHHHHH”, the “soluble on expression in E. coli” value was “soluble”.
As for “QQQHKVLKTVKVTEQLKHCSEILKEMLAKKHLPYAWPFYNPVDADALGLHNYYDVVKNPMDLGTIKGKMDNQEYKDAYEFAADVRLMFMNCYKYNPPDHEVVAMARTLQDVFELHFAKIPDEPIES”, the “soluble on expression in E. coli” value is “soluble”.
To “MTDTAENQTQNNWQAGHPRSIRSFVLRQSHMTAAQQRAIDTLWDSFGIDYQATPADLDARFGSSRPKILEIGFGMGTATAEIARRLPETDFLAIDVHGPGVGNLLKLIDENHLENIRVMRHDAVEVVENMLQDGSLDGIHIFFPDPWHKKRHHKRRLIQAPFIAKLLPKLKTGGYIHLATDWEEYAQQMLEVLSSFDSLQNTAADYAPTPDYRPETKFEARGKRLGHGVWDLVFKRIG” belongs “not soluble”.
To “MGSDKIHHHHHHMKIDDIDAFVAVIRCQSISHAAESLDLTQPAITRRVQNFEQALGVELFDRNTKPLKPTPMGIQVYQKCLAILREMDSLRELVASDTPPSGLLRLGVPQTIGDVVLLDALKQLRGEFPDLRAQVSTGWGSHLIGKIENGELDAAAALFPAGKIFPDNIVGQSIGKMELVVVCAKGSVPKKPGKLADCYEQGWVLNPDGCGFRAGLQRTLTDQGLSMKVNLETFGTELQLGLVADGMGLGLVPRPLLERSAHREQLVVLPLKDFKPVMDLWLFYPRFLGNLQAPVEAFGALVARSLKPLSAAA” belongs “not soluble”.
With “MMRKLKTLPPTLRDKNRYIAFEIISDGDFTKDEVKELIWKSSLEVLGETGTAIVKPWLIKFDPNTKTGIVRSDREYVEYLRFALMLVSEFNGKRLIIRTLGVSGTIKRLKRKFLAKYGWK”, the “soluble on expression in E. coli” value is “soluble”.
With “MPKYYEDKPQGGACAGLKEDLGACLLQSDCVVQEGKSPRQCLKEGYCNSLKYAFFECKRSVLDNRARFRGRKGY” the entry was “not soluble”.
